Residue numbers refer to the chain shown, from its start. Names may count otherwise.
How the values were obtained:
[1] = biological target: T1, wild-type CD147 extracellular portion (residues 22-205) tagged with 6 x His, P35613; assay: native gel or EMSA; non-denaturing SDS-PAGE: 5 ug purified protein with DMSO or AC-73 (0, 0.1, 0.25 or 0.5 uM), 5x Laemmli sample buffer lacking SDS, 10% SDS-PAGE without boiling, immunoblot with anti-His6; monomer and dimer bands; conditions: remark: other sources report otherwise
T1 chain: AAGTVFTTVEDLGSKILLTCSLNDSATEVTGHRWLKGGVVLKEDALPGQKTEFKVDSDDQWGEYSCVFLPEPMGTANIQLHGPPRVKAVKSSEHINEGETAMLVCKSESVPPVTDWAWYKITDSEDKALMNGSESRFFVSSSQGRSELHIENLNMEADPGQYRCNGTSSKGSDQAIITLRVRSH

[2] = biological target: the molecule itself; assay: as above

B1: wild-type CD147 extracellular portion (residues 22-205) tagged with 6 x His, P35613-2 22-205 (domain or fragment)
chain: T1 chain
**Q.** With B1 as the binder, how does the stoichiometry N [1] read?
**A.** 2

B2: CD147 mutant E73A, extracellular portion tagged with 6 x His (domain or fragment, UniProt P35613-2 22-205, looked up)
chain: T1 chain with E52A
notes: CD147 (EMMPRIN, HAb18G/CD147), extracellular portion, residues 22-205 as for CD147wt, with E73A; also called CD147mt; CD147mts; source: prokaryotic expression system, purified
**Q.** Does B2 bind [2]?
**A.** binds

B3: CD147 mutant E64A, extracellular portion tagged with 6 x His (domain or fragment, UniProt P35613-2 22-205, looked up)
chain: T1 chain with E43A
notes: CD147 (EMMPRIN, HAb18G/CD147), extracellular portion, residues 22-205 as for CD147wt, with E64A; also called CD147mt; CD147mts; source: prokaryotic expression system, purified
**Q.** Does B3 bind [2]?
**A.** binds

From publication PMC4891050, “A novel small-molecule compound targeting CD147 inhibits the motility and invasion of hepatocellular carcinoma cells” (Oncotarget, 2016)
